Assay results: patent USRE40831

Target: hepatitis B virus surface antigen, ad antigen (Chemicon Cat. No. AG 850) (hepatitis B virus)
Test: competitive ELISA

B1: Ab19.79.5, human monoclonal antibody secreted by hybridoma cell line 19.79.5 (ECACC Accession No. 96052168) (antibody, human IgG1, V domains shown)
VH: QVQLVESGGGVVQPGGSLRLSCAPSGFVFRSYGMHWVRQTPGKGLEWVSLIWHDGSNRFYADSVKGRFTISRDNSKNTLYLQMNSLRAEDTAMYFCARERLIAAPAAFDLWGQGTLVTVSS
VL: SYVLTQPPSVSVAPGKTARISCGGNNIGTKNVHWYQQKPGQAPVLVVYADSDRPSGIPERFSGSNSGNTATLTISRVEVGDEADYYCQVWDSVSYHVVFGGGTTLTVLG
For B1, the Kd was 1.3 nM.
